Data as given in paper PMC9482650, “Quantitative fragmentomics allow affinity mapping of interactomes” (Nature Communications, 2022).

Legend:
Assay in all cases: holdup assay
Parameters in all cases: key: below the threshold = too weak to quantify, mostly under pKd 3.1 to 4
[1] = target: T1, APBA2_2, Q99767
T1 sequence (Q99767 654-744, limits assumed, looked up): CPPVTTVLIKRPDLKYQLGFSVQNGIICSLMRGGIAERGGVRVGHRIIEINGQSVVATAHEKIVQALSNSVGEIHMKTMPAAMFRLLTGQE

[2] = target: T2, ARHGAP21, Q5T5U3
T2 sequence (Q5T5U3 45-169, limits assumed, looked up): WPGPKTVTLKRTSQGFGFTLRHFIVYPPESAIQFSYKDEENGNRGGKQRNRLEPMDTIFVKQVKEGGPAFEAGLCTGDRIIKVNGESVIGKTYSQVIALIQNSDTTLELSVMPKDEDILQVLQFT

[3] = target: DLG1_2, Q12959
[4] = target: DLG2_3, Q15700
[5] = target: DLG4_1, P78352
[6] = target: DLG4_2, P78352
[7] = target: DLG4_3, P78352
[8] = target: FRMPD4, Q14CM0
[9] = target: GIPC2, Q8TF65
[10] = target: GORASP2, Q9H8Y8
[11] = target: GRASP, Q7Z6J2
[12] = target: GRID2IP_2, A4D2P6
[13] = target: GRIP2_5, Q9C0E4
[14] = target: HTRA1, Q92743
[15] = target: HTRA2, O43464
[16] = target: IL16_1, Q14005
[17] = target: IL16_4, Q14005
[18] = target: Inadl_1, Q8NI35
[19] = target: Inadl_10, Q8NI35
[20] = target: Inadl_6, Q8NI35
[21] = target: LAP2, Q96RT1
[22] = target: LNX1_2, Q8TBB1
[23] = target: LNX1_3, Q8TBB1
[24] = target: MAGI2_4, Q86UL8
[25] = target: MAGI2_5, Q86UL8
[26] = target: MAGI3_2, Q5TCQ9
[27] = target: MAST1, Q9Y2H9
[28] = target: MAST2, Q6P0Q8
[29] = target: PDLIM1, O00151
[30] = target: T3, PDZD2_2, O15018
T3 sequence (O15018 329-429, limits assumed, looked up): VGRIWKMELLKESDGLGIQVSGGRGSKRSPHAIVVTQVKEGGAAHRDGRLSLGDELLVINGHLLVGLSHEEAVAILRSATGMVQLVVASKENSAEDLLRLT

[31] = target: T4, RADIL, Q96JH8
T4 sequence (Q96JH8 971-1071, limits assumed, looked up): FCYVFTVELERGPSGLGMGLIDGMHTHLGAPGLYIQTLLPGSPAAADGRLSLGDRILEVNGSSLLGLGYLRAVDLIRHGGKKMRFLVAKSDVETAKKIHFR

[32] = target: T5, SHANK1, Q9Y566
T5 sequence (Q9Y566 658-767, limits assumed, looked up): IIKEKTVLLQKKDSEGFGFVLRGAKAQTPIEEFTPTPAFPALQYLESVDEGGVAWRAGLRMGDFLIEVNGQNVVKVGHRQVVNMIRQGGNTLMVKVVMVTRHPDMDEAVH

[33] = target: T6, SNTB1, Q13884
T6 sequence (Q13884 107-205, limits assumed, looked up): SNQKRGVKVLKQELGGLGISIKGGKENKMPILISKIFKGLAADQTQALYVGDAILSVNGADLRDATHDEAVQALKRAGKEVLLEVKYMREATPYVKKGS

[34] = plain residues with an end cap or a label only (N-terminal biotin on a linker: ado-ado)
[35] = plain residues with an end cap or a label only (N-terminal biotin on a linker: ahx)

GIPC2, Q8TF65, sequence (Q8TF65 112-203): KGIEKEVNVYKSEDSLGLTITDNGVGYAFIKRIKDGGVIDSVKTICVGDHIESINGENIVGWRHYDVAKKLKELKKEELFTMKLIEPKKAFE
LNX1_3, Q8TBB1, sequence (Q8TBB1 500-596): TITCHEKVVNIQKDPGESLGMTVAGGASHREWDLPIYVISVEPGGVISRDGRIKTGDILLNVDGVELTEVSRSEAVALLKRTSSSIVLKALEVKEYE
HTRA2, O43464, sequence (O43464 355-458): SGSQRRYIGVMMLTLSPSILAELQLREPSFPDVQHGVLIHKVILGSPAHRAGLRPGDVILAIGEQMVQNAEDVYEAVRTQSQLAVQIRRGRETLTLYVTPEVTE
MAGI2_5, Q86UL8, sequence (Q86UL8 915-1017): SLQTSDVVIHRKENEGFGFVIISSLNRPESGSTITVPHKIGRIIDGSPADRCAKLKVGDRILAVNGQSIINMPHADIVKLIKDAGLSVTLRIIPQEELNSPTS
LAP2, Q96RT1, sequence (Q96RT1 other isoform, or with tags, fused parts or gaps): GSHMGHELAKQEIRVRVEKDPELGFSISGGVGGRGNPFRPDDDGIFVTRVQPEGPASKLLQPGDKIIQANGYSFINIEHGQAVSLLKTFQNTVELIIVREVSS
HTRA1, Q92743, sequence (Q92743 360-477): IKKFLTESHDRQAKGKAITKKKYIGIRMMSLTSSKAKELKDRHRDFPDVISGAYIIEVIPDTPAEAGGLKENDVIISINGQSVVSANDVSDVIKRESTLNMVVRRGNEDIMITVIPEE
GRASP, Q7Z6J2, sequence (Q7Z6J2 96-193): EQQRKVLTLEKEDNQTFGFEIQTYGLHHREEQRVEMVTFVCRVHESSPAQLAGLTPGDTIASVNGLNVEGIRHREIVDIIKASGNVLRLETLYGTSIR
Inadl_6, Q8NI35, sequence (Q8NI35 1058-1167): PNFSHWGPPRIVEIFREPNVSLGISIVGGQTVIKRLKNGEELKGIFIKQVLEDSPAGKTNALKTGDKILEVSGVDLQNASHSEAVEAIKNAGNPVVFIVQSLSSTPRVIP
FRMPD4, Q14CM0, sequence (Q14CM0 67-160): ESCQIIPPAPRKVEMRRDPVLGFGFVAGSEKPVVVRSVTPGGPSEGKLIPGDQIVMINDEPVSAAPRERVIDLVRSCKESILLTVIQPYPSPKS
MAGI2_4, Q86UL8, sequence (Q86UL8 772-865): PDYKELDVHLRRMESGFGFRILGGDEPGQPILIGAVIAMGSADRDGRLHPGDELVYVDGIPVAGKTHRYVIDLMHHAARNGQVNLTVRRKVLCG
MAST2, Q6P0Q8, sequence (Q6P0Q8 1099-1202): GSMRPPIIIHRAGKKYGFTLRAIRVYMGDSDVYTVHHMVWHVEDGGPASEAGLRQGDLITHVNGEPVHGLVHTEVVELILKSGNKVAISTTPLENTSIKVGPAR
IL16_4, Q14005, sequence (Q14005 1229-1329): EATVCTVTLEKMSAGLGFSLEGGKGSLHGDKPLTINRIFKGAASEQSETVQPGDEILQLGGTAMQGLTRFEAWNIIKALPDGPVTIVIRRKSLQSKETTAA
GRID2IP_2, A4D2P6, sequence (A4D2P6 272-370): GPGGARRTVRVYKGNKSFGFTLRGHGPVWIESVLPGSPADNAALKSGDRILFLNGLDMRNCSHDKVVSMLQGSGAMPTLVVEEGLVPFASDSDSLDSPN
DLG1_2, Q12959, sequence (Q12959 314-412): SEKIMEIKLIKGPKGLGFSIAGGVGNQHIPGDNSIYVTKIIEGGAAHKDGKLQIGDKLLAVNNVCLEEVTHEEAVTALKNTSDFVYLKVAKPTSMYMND
Inadl_1, Q8NI35, sequence (Q8NI35 113-229): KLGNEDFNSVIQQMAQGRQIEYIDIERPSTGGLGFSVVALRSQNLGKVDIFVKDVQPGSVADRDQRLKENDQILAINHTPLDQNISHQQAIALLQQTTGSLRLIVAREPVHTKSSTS
LNX1_2, Q8TBB1, sequence (Q8TBB1 371-470): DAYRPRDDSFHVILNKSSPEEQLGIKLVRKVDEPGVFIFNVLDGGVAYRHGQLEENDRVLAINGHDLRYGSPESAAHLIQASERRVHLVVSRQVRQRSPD
PDLIM1, O00151, sequence (O00151 1-87): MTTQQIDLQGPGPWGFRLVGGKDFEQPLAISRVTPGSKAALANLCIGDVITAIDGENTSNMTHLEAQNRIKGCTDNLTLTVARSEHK
Inadl_10, Q8NI35, sequence (Q8NI35 1673-1763): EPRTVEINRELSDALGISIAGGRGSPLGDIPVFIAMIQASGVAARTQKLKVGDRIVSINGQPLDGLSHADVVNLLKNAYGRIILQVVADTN
MAST1, Q9Y2H9, sequence (Q9Y2H9 962-1065): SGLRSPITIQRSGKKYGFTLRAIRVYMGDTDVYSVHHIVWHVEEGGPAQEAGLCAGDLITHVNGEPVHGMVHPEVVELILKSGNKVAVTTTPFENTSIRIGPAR
IL16_1, Q14005, sequence (Q14005 210-306): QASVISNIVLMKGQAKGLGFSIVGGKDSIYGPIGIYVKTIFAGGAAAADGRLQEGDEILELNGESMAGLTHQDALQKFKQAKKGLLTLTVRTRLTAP
DLG4_2, P78352, sequence (P78352 155-259): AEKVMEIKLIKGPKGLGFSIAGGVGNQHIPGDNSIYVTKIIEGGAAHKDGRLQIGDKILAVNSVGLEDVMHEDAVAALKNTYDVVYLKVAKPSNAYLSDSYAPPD
DLG4_3, P78352, sequence (P78352 306-403): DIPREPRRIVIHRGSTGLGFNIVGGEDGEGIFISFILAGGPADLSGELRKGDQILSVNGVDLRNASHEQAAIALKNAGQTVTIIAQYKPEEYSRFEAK
DLG4_1, P78352, sequence (P78352 62-152): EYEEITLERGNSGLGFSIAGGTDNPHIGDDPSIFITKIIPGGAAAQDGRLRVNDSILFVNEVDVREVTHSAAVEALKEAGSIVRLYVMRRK
MAGI3_2, Q5TCQ9, sequence (Q5TCQ9 398-503): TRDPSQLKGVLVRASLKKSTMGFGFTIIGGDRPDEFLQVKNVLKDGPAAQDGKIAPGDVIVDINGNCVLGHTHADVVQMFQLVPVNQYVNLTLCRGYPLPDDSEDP
GRIP2_5, Q9C0E4, sequence (Q9C0E4 544-642): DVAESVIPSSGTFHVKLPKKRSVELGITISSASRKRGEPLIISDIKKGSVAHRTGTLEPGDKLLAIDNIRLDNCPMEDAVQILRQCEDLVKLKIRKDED

In the case of QSYPSKHDYV [CLDN18, P56856], the pKd [1, 34] is reported as 3.62, the pKd [2, 34] is reported as 3.99 and the pKd [3, 34] is reported as 3.71. The pKd [4, 34] was “below the threshold”, the pKd [5, 34] was 3.67 and the pKd [6, 34] was 3.56. The pKd [7, 34] was “below the threshold”, the pKd [8, 34] was 3.57 and the pKd [9, 34] was “below the threshold”. The pKd [10, 34] was 4.13, the pKd [11, 34] was 3.71 and the pKd [12, 34] was “below the threshold”. The pKd [13, 34] was “below the threshold”, the pKd [14, 34] was 4.32 and the pKd [15, 34] was 3.71. The pKd [16, 34] was “below the threshold”, the pKd [17, 34] was 3.78 and the pKd [18, 34] was “below the threshold”. The pKd [19, 34] was “below the threshold”, the pKd [20, 34] was “below the threshold” and the pKd [21, 34] was “below the threshold”. The pKd [22, 34] was 3.69, the pKd [23, 34] was 3.74 and the pKd [24, 34] was 3.68. For the same binder, the pKd [25, 34] was “below the threshold”, the pKd [26, 34] was “below the threshold” and the pKd [27, 34] was 4. For the same binder, the pKd [28, 34] was 3.87, the pKd [29, 34] was “below the threshold” and the pKd [30, 34] was 4.86. The pKd [31, 34] was 4.35, the pKd [32, 34] was “below the threshold” and the pKd [33, 34] was “below the threshold”.

For EPQYQPGENL [SRC, P12931], the pKd [1, 34] was “below the threshold”, the pKd [2, 34] was 4 and the pKd [3, 34] was “below the threshold”. The pKd [4, 34] was “below the threshold”, the pKd [5, 34] was “below the threshold” and the pKd [6, 34] was “below the threshold”. For the same binder, the pKd [7, 34] was “below the threshold”, the pKd [8, 34] was 4.12 and the pKd [9, 34] was “below the threshold”. For the same binder, the pKd [10, 34] was “below the threshold”, the pKd [11, 34] was “below the threshold” and the pKd [12, 34] was “below the threshold”. For the same binder, the pKd [13, 34] was “below the threshold”, the pKd [14, 34] was “below the threshold” and the pKd [15, 34] was 3.53. For the same binder, the pKd [16, 34] was “below the threshold”, the pKd [17, 34] was 3.5 and the pKd [18, 34] was “below the threshold”. The pKd [19, 34] was “below the threshold”, the pKd [20, 34] was “below the threshold” and the pKd [21, 34] was “below the threshold”. The pKd [22, 34] was “below the threshold”, the pKd [23, 34] was “below the threshold” and the pKd [24, 34] was “below the threshold”. For the same binder, the pKd [25, 34] was “below the threshold”, the pKd [26, 34] was “below the threshold” and the pKd [27, 34] was 4.18. For the same binder, the pKd [28, 34] was “below the threshold”, the pKd [29, 34] was 3.56 and the pKd [30, 34] was “below the threshold”. The pKd [31, 34] was “below the threshold”, the pKd [32, 34] was “below the threshold” and the pKd [33, 34] was 3.58.

With DGVNEKVSCV [HTR2A, P28223] the pKd [1, 34] was “below the threshold”, the pKd [2, 34] was “below the threshold” and the pKd [3, 34] was 4.82. The pKd [4, 34] was 3.8, the pKd [5, 34] was 3.69 and the pKd [6, 34] was 4.74. The pKd [7, 34] was “below the threshold”, the pKd [8, 34] was “below the threshold” and the pKd [9, 34] was “below the threshold”. It also gave a pKd [10, 34] of 3.74, a pKd [11, 34] of 4.21 and a pKd [12, 34] of 4.54. For the same binder, the pKd [13, 34] was “below the threshold”, the pKd [14, 34] was 4.95 and the pKd [15, 34] was “below the threshold”. The pKd [16, 34] was 4.72, the pKd [17, 34] was 3.56 and the pKd [18, 34] was “below the threshold”. For the same binder, the pKd [19, 34] was “below the threshold”, the pKd [20, 34] was 3.57 and the pKd [21, 34] was “below the threshold”. For the same binder, the pKd [22, 34] was “below the threshold”, the pKd [23, 34] was “below the threshold” and the pKd [24, 34] was 3.72. It also gave a pKd [25, 34] of 4.78, a pKd [26, 34] of 4.47 and a pKd [27, 34] of 3.65. The pKd [28, 34] was 4.52, the pKd [29, 34] was “below the threshold” and the pKd [30, 34] was 6. For the same binder, the pKd [31, 34] was 4.53, the pKd [32, 34] was “below the threshold” and the pKd [33, 34] was 4.72.

In the case of APSRKLNTEI [TIAM1, Q13009], the pKd [1, 35] is reported as “below the threshold”, the pKd [2, 35] is reported as “below the threshold” and the pKd [3, 35] is reported as 3.97. For the same binder, the pKd [4, 35] was 3.66, the pKd [5, 35] was “below the threshold” and the pKd [6, 35] was 3.88. For the same binder, the pKd [7, 35] was “below the threshold”, the pKd [8, 35] was “below the threshold” and the pKd [9, 35] was “below the threshold”. The pKd [10, 35] was “below the threshold”, the pKd [11, 35] was “below the threshold” and the pKd [12, 35] was “below the threshold”. For the same binder, the pKd [13, 35] was “below the threshold”, the pKd [14, 35] was “below the threshold” and the pKd [15, 35] was “below the threshold”. The pKd [16, 35] was “below the threshold”, the pKd [17, 35] was “below the threshold” and the pKd [18, 35] was “below the threshold”. The pKd [19, 35] was “below the threshold”, the pKd [20, 35] was “below the threshold” and the pKd [21, 35] was “below the threshold”. For the same binder, the pKd [22, 35] was “below the threshold”, the pKd [23, 35] was “below the threshold” and the pKd [24, 35] was “below the threshold”. For the same binder, the pKd [25, 35] was “below the threshold”, the pKd [26, 35] was “below the threshold” and the pKd [27, 35] was “below the threshold”. For the same binder, the pKd [28, 35] was “below the threshold”, the pKd [29, 35] was “below the threshold” and the pKd [30, 35] was “below the threshold”. For the same binder, the pKd [31, 35] was “below the threshold”, the pKd [32, 35] was “below the threshold” and the pKd [33, 35] was “below the threshold”.
